From patent US20240368238A1 (DRACOTERPIN BIOMEDICINE, published 2024)
Changes are numbered by the printed parent chain.

T1: IL-2Rβ/γ-Fc heterodimer (IL-2Rβ-Fc-hole + IL-2Rγ-Fc-knob) (UniProt P14784 27-240; P31785 23-262)
T1 construct: Both chains transfected together into HEK293; purified with Protein A and Superdex 200; used as the analyte in the BLI; also called IL-2Rβ/γ heterodimers; not shown: Fc hole; Fc knob
T1 sequence (looked up) 1: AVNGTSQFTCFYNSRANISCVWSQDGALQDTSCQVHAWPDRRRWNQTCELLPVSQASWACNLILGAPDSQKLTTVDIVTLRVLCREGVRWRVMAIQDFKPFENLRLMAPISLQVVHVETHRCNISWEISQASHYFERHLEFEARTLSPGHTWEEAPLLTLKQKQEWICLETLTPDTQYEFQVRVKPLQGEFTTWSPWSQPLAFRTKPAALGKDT
T1 sequence (looked up) 2: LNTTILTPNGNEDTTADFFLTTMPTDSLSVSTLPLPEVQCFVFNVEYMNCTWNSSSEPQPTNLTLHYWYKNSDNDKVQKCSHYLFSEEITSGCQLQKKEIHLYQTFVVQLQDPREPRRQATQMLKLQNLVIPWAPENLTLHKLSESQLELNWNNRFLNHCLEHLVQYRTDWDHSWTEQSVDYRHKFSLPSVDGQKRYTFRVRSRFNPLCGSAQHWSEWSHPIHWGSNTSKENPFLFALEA

T2: IL-2Rβ/γ receptor subunit complex on CTLL-2 cells (UniProt P16297 27-539; P34902 23-369)
T2 sequence (looked up) 1: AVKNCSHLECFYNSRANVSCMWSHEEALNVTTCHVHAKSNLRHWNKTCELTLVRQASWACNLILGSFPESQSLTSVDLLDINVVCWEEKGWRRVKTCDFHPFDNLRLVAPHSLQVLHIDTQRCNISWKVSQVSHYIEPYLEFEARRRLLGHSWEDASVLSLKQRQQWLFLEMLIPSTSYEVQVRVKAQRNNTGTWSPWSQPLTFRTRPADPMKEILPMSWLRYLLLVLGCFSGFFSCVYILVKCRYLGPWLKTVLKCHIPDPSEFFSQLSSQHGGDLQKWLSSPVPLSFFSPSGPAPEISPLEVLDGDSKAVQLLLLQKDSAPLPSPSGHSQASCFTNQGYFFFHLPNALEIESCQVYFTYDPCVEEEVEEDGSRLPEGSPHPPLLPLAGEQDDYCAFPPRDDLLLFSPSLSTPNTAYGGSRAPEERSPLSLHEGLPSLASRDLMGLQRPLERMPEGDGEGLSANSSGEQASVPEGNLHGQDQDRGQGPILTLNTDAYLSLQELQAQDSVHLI
T2 sequence (looked up) 2: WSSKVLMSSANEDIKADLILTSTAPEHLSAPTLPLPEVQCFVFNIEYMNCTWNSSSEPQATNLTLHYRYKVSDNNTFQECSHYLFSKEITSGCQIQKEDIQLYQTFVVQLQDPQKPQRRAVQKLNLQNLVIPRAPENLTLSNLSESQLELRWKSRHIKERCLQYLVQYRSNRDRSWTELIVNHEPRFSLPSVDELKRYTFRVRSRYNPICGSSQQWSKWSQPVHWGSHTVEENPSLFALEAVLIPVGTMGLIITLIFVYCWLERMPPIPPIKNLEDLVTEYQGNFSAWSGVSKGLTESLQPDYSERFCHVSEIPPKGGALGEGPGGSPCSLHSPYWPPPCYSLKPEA

T3: IL2-Rα-his (UniProt P01589 22-240, limits assumed)
T3 construct: used as the analyte in the BLI; also called IL-2 receptor α; CD25; not shown: his tag
T3 sequence (looked up): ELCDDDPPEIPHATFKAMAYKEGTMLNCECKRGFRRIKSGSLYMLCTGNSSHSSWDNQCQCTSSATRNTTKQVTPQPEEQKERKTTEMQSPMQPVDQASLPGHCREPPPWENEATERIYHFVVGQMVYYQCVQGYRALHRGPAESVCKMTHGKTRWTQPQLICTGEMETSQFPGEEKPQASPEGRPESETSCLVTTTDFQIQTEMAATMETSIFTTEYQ

B1: IL-2-4 (43-45 + 125) (ligand)
chain: APTSSSTKKTQLQLEHLLLDLQMILNGINNYKNPKLTRMLTFGMPKKATELKHLQCLEEELKPLEEVLNLAQSKNFHLRPRDLISNINVIVLELKGSETTFMCEYADETATIVEFLNRWITFAQSIISTLT
notes: Human IL-2 variant; HEK293 expression, purified by the HPC4 tag; not shown: HPC4 tag at the C-terminus
B2: IL-2-7 (31-32 + 43-45 + 125) (ligand)
chain: B1 chain with Y31G, K32G
notes: as for B1
B3: IL-2-6 (35-41 + 43-45 + 125) (ligand)
chain: APTSSSTKKTQLQLEHLLLDLQMILNGINNYKNPMHGLDGFGMPKKATELKHLQCLEEELKPLEEVLNLAQSKNFHLRPRDLISNINVIVLELKGSETTFMCEYADETATIVEFLNRWITFAQSIISTLT
notes: as for B1
B4: IL-2-8 (35-43 + 125) (ligand)
chain: B3 chain with H36G, D39G, G42Y
notes: as for B1
B5: IL-2-1 (31-32 + 35-41 + 43-45 + 125) (ligand)
chain: B3 chain with Y31G, K32G
notes: as for B1
B6: IL-2-9 (35-41 + 43-45 + 125) (ligand)
chain: B3 chain with M35G, H36G, L38G, D39G
notes: as for B1
B7: IL-2-3 (31-32 + 125) (ligand)
chain: APTSSSTKKTQLQLEHLLLDLQMILNGINNGGNPKLTRMLTFKFYMPKKATELKHLQCLEEELKPLEEVLNLAQSKNFHLRPRDLISNINVIVLELKGSETTFMCEYADETATIVEFLNRWITFAQSIISTLT
notes: as for B1
B8: IL-2-2 (35-41 + 125) (ligand)
chain: APTSSSTKKTQLQLEHLLLDLQMILNGINNYKNPMHGLDGFKFYMPKKATELKHLQCLEEELKPLEEVLNLAQSKNFHLRPRDLISNINVIVLELKGSETTFMCEYADETATIVEFLNRWITFAQSIISTLT
notes: as for B1
B9: IL-2-5 (31-32 + 35-41 + 125) (ligand)
chain: B8 chain with Y31G, K32G
notes: as for B1

Molecular target: T1, IL-2Rβ/γ-Fc heterodimer (IL-2Rβ-Fc-hole …)
Experiment: Octet BLI per Example 3, IL-2Rβ/γ-Fc heterodimer as analyte at the concentration on the x axis; y axis on the sheet reads OD490
Method: (§1) Experimental data were processed using Data Analysis software 9.0. […] The method of global fitting was applied, i.e., the 6 concentrations were analyzed as a group.

Binder | EC50 (read off the curve)
B1 | ~100 nM
B2 | ~100 nM
B3 | ~100 nM
B4 | ~100 nM
B5 | ~100 nM
B6 | ~100 nM
B7 | ~100 nM
B8 | ~100 nM
B9 | ~100 nM

Molecular target: T2, IL-2Rβ/γ receptor subunit complex on …
Experiment: cell-based or functional assay

Binder | Relative activity (CTLL-2 cell proliferation, CCK-8)
B1 | 100%
B2 | 58%
B3 | 13%
B4 | 8%
B5 | 13%
B6 | 8%
B7 | 100%
B8 | 64%
B9 | 90%

Molecular target: T3, IL2-Rα-his
Experiment: BLI (Octet RED96e), AR2G sensors, IL-2Rα-his as analyte, 1:1 global fit
Method: (§2) 2. The experiment was performed with reference to the experimental design below. The whole experiment was completed under the conditions of 30° C., 1000 rpm, 220 μl/well. The proteins used in the experiment were IL2-Rα-his and IL-2 variants or derivatives thereof obtained by transient expression in HEK293 and affinity purification.
as §1

Binder | Kd
B1 | 0.799 nM
B2 | 3.25 nM
B7 | 0.656 nM
B8 | 0.789 nM
B9 | 0.904 nM

Molecular target: T3, IL2-Rα-his
Experiment: Octet BLI per Example 2, IL-2Rα-his as analyte at the concentration on the x axis; y axis on the sheet reads OD490
Method: as §2, §1

Binder | EC50 (read off the curve) | binding result
B1 | ~60 nM | 
B2 | ~70 nM | 
B3 |  | no binding (tested: 500 nM)
B4 |  | no binding (tested: 1000 nM)
B5 |  | no binding (tested: 500 nM)
B6 |  | no binding (tested: 500 nM)
B7 | ~60 nM | 
B8 | ~60 nM | 
B9 | ~60 nM | 

Molecular target: T1, IL-2Rβ/γ-Fc heterodimer (IL-2Rβ-Fc-hole …)
Experiment: BLI (Octet RED96e), AR2G sensors, IL-2Rβ/γ-Fc heterodimer as analyte, 1:1 global fit
Method: as §1

Binder | Kd
B1 | 4.11 nM
B2 | 6.48 nM
B3 | 19.6 nM
B4 | 21.3 nM
B5 | 17.9 nM
B6 | 27.2 nM
B7 | 3.74 nM
B8 | 4.87 nM
B9 | 5.24 nM
